Source: article PMC4245193
pKd: −log10 of the molar value.

System: stable placental multi-protein complex SPC-1 (donor 1) (Homo sapiens (placenta, donor 1))
Test: tryptophan fluorescence quenching titration (Scatchard)
Settings: 5' phosphate as printed (pT), 20 mM Tris-HCl pH 7.5, 150 mM NaCl, 0.3 mg/ml SPC, 25 C, excitation 283 nm, emission 338 nm

Question: With TAGAAGATCAAA [12-mer ODN] as the sequence, how does the pKd (high-affinity site (Kd1)) read?
Answer: Its pKd is 7.44.

Question: What about the pKd (low-affinity site (Kd2)) of the same sequence?
Answer: Its pKd is 5.59.
